These results are taken from the supplement of paper PMC10567573.

The nature of the series: protein stability index of a GFP-peptide fusion (GPS, HEK-293T) (PSI 1-6); higher = more stable. The settings on record: c terminus: a fixed tail appended.

± gives the standard deviation.
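Further: 24-mer peptide tiles fused after GFP, lentivirally expressed, FACS-sorted into six equal bins by GFP/DsRed ratio, decoded by Illumina sequencing, PSI is the read-weighted mean bin number.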

On to ETRVTSGSMEALNLKQLRKRGSIP [PPFIA4], for which the protein stability index reads like this: (treatment: DMSO) 4.6 ± 0.07; (treatment: MLN4924 1 uM, 8 h) 4.75 ± 0.22.
The matching figures for ETTSQQERLQAIAEKRKRQAEIEN [PALM]: 4.94 ± 0.14 and 5.06 ± 0.12.
The matching figures for EVAAKNQSLEGDTTKGTSEMSEKR [MLH1]: 5.15 ± 0.26 and 5.46 ± 0.56.
In the same order, the values of EVLRMCVAVKKKLQLYFWKDREFH [VPS39] are 2.49 ± 0.34 and 2.55 ± 0.34.
EVLSLGVQVPEAWEELLTMKVEAK [ZSCAN9]: the protein stability index worked out at 3.53 ± 0.67 (treatment: DMSO) and 3.45 ± 0.22 (treatment: MLN4924 1 uM, 8 h).
Take EYAWCLVRSKYNDDIRKGIVLLEE [FIS1]: the protein stability index (treatment: DMSO) came out at 2.13 ± 0.43 and the protein stability index (treatment: MLN4924 1 uM, 8 h) turned out to be 2.03 ± 0.26.
In the same order, the values of EYHQPQAPANVAKIQLRLAGQKRK [LOXL2] are 4.34 ± 0.43 and 4.54 ± 0.4.
In the same order, the values of FAFSNGYLASLCMCFGPKKVKPAE [SLC29A1] are 2 ± 0.36 and 2.34 ± 0.21.
In the same order, the values of FAIGVCTGLVGLFVDFFVRLFTQL [CLCN6] are 2.65 ± 0.52 and 2.32 ± 0.56.
As for FAQRTFDYELLQMLQIVVGVRDSG [PCDHGC5], the protein stability index is, setting by setting: (treatment: DMSO) 3.01 ± 0.53; (treatment: MLN4924 1 uM, 8 h) 2.74 ± 0.84.
In the same order, the values of FAYLEDLHSEFDEQHGKKVPTVSR [SEC22B] are 3.64 ± 0.24 and 3.73 ± 0.33.
The matching figures for FCQTDQTCICYLCMFQEHKNHSTV [TRIM29]: 2.2 ± 0.085 and 2.66 ± 0.32.
FCSVIRINSTAPFEEQENYFLLCD [ZNF277] came in with a protein stability index (treatment: DMSO) of 2.46 ± 0.7 and a protein stability index (treatment: MLN4924 1 uM, 8 h) of 1.83 ± 0.15.
In the same order, the values of FDRKKKSISLMYGGSKRKSSFFSS [SLA] are 2.53 ± 0.22 and 2.68 ± 0.4.
Sequence FEAAFGTTPSTSSSSSFDPSVFDG [SNAP91] showed a protein stability index (treatment: DMSO) of 4.61 ± 0.12 and a protein stability index (treatment: MLN4924 1 uM, 8 h) of 4.53 ± 0.22.
In the same order, the values of FEDPRDAEDAVYGRDGYDYDGYRL [SRSF1] are 4.73 ± 0.18 and 4.8 ± 0.14.
The matching figures for FFEILRLFFPVIYDVKYLMKSCKN [CNOT7]: 2.37 ± 0.9 and 2.87 ± 0.048.
Consider FFEKPDYDYLRKLFTDLFDRKGYM [CSNK1G3], for which the protein stability index by setting is: (treatment: DMSO) 2.05 ± 0.58; (treatment: MLN4924 1 uM, 8 h) 2.5 ± 0.25.
The matching figures for FHELQMQVTASDSGDPPLSSNVSL [PCDHGA10]: 2.93 ± 0.49 and 3.38 ± 0.54.
Take FHHIPSTCQRVNGIKVQNGGIVTD [SLC19A2]: the protein stability index was 2.47 ± 0.55 (treatment: DMSO) and 3 ± 0.41 (treatment: MLN4924 1 uM, 8 h).
The matching figures for FHLGLEDILMEEEEGVVGGLSGGA [TFE3]: 3.75 ± 0.46 and 4.3 ± 0.46.
In the same order, the values of FICQATGDPRPKIVWNKKGKKVSN [PTPRD] are 2.84 ± 0.37 and 3.35 ± 0.68.
In the same order, the values of FIDGKFLPCSSYIDSYDPSTGEVY [ALDH8A1] are 2.44 ± 1.2 and 2.66 ± 0.11.
As for FIEGYCTPEEVIWEALNMMGLYDG [MAGEA10], the protein stability index came to 2.48 ± 0.24 (treatment: DMSO) and 2.17 ± 0.26 (treatment: MLN4924 1 uM, 8 h).
FKAVLDGLDVLLAQEVRPRRWKLQ [PRAME]: the protein stability index reads like this: (treatment: DMSO) 2.25 ± 0.19; (treatment: MLN4924 1 uM, 8 h) 2.41 ± 0.35.
In the same order, the values of FKHPVIGVHVRRTDKVGTEAAFHP [FUT8] are 2.98 ± 0.31 and 3.13 ± 0.23.
The matching figures for FLHPDLGVGGAERLVLDAALALQA [ALG2]: 2.32 ± 0.43 and 2.27 ± 0.23.
In the same order, the values of FLVTMANIGINGNHSLETCETTLF [PTGFR] are 2.88 ± 0.88 and 2.5 ± 1.1.
Take FNKDLVQDCGFEHLVPVIEMWADQ [CEP70]: the protein stability index was 2.45 ± 0.45 (treatment: DMSO) and 2.65 ± 0.61 (treatment: MLN4924 1 uM, 8 h).
In the same order, the values of FNNVVEQNFKNRESYPEDTVFYIP [DLC1] are 3.01 ± 0.24 and 3.16 ± 0.2.
Consider FPAEQYYRFHEHWRFVLQRLVFLA [TSN], for which the protein stability index reads like this: (treatment: DMSO) 2.44 ± 0.42; (treatment: MLN4924 1 uM, 8 h) 2.22 ± 0.27.
The matching figures for FPNRTDQQCQYRWLRVLNPDLVKG [MYBL2]: 2.4 ± 0.34 and 2.44 ± 0.53.
In the same order, the values of FPSTSYNARLQAMWGQSLLPPVST [TNXB] are 2.36 ± 0.32 and 2.51 ± 0.35.
In the same order, the values of FQAHRDKYEKLRGDVAIKLKFLEE [ARFIP2] are 2.89 ± 0.45 and 3.15 ± 0.25.
For FQSISLRKIQFNFPYFRSDRDKRD [CLCN6], the protein stability index was determined as 2.3 ± 0.34 (treatment: DMSO) and 2.75 ± 0.52 (treatment: MLN4924 1 uM, 8 h).
FRAGMKKEAVQNERDRISTRRSSY [HNF4A]: the protein stability index (treatment: DMSO) came to 4.2 ± 0.21 and the protein stability index (treatment: MLN4924 1 uM, 8 h) stood at 4.17 ± 0.22.
